Results taken from patent publication US20210292396A1.
Values joined by “and” are separate entries in the source; they are usually repeats but may differ in a detail not shown here. Equal entries are not always repeated.

Target: gp120 (isolate: 92BR020) (HIV)

Row | Substance | EC50 (read off the curve)
1 | VRC01 (antibody) | 0.07 µg/mL
2 | 2G12 (antibody) | 0.07 µg/mL
3 | PGT128 (antibody) | 0.05 µg/mL
4 | PGT135 (antibody) | 0.05 µg/mL and 0.1 µg/mL
